Positions count from the first letter of the chain named.
B1: m906 anti-CD56 Fab (Fab, V domains shown)
VH: EVQLVQSGAEVKKPGSSVKVSCKASGGTFTGYYMHWVRQAPGQGLEWMGWINPNSGGTNYAQKFQGRVTMTRDTSISTAYMELSRLRSDDTAVYYCARDLSSGYSGYFDYWGQGTLVTVSS
VL: DVVMTQSPLSLPVTPGEPASISCRSSQSLLHSNGYNFLDWYLQKPGQSPQLLIYLGSNRASGVPDRFSGSGSGTDFTLKISRVEADDVGVYYCMQSLQTPWTFGHGTKVEIKR
notes: Human Fab from light chain shuffling of a phage display clone; also called Fab46-19
B2: m903 anti-CD56 Fab (Fab, V domains shown)
VH: B1 VH
VL: not shown
notes: Human Fab from light chain shuffling of a phage display clone; also called Fab46-E5
B3: m904 anti-CD56 Fab (Fab, V domains shown)
VH: B1 VH
VL: not shown
notes: Human Fab from light chain shuffling of a phage display clone; also called Fab46-H3
B4: m905 anti-CD56 Fab (Fab, V domains shown)
VH: B1 VH
VL: B1 VL with F37Y, D39N, A85G, D86E, V90D, S96A, T99S, W101F, H105Q, V109L
notes: Human Fab from light chain shuffling of a phage display clone; also called Fab46-8

Biological target: T1, human CD56 (human, UniProt P13591 20-718, limits assumed)
T1 construct: also called neural cell adhesion molecule
Experiment: Biacore (surface plasmon resonance), Fab
From the text: CD56 Fab selection: CD56-binding Fabs were selected with phage display technology in two steps, as previously described (Feng, et al. A novel human monoclonal antibody that binds with high affinity to mesothelin-expressing cells and kills them by antibody-dependent cell-mediated cytotoxicity. Mol Cancer Ther. 8(5):1113-1118 (2009)). Firstly, CD56 Fabs were identified by panning and screening of a large naïve human antibody library through multiple rounds of binding and amplification. In the second step, the selected clone with the best in vitro and in vivo binding property was affinity matured through a light chain shuffling process, where the VH of the clone was combined with the VL repertoire from the original library. The sub-library was further panned and screened with CD56 to obtain Fab clones with the same epitope but different affinities. Binding of the Fabs was confirmed with ELISA and affinities estimated with Surface Plasmon Resonance method on a Biacore Processing unit X100.

| Binder | Kd [nM] |
| --- | --- |
| B1 | 4.49 |
| B2 | 236 |
| B3 | 90.9 |
| B4 | 9.17 |
